In publication PMC13013481:

Biological target: RSV G central conserved cysteine-rich region peptide (Gpep, residues 149-196) (respiratory syncytial virus strain A2)
Assay: Tricine SDS-PAGE, non-reducing and reducing; 16% Tricine SDS-PAGE of concentrated Gpep, with or without β-mercaptoethanol and with or without heat denaturation

RSV G central conserved cysteine-rich region peptide (Gpep, residues 149-196)
stoichiometry N: 2
